Here are results for two substances from PMC4526809.

Values joined by “and” are separate entries in the source; they are usually repeats but may differ in a detail not shown here. Equal values may be shown once.

Experiment [1] concerns the target His6-tagged B. cereus C-SpoIISA (pETDuetCIISA Bc; pETDuetCIISAB Bc) (Bacillus cereus ATCC 14579) (UniProt Q81DD1). Briefly: cross-linking; 80 μg Ni-purified His6-C-SpoIISA with glutaraldehyde (5 μl of 2.3% in 100 μl), 30 min, 37°C; 12% SDS-PAGE and Western blot. In general terms: Immunoblotting shows a protein as a band on a membrane.
For experiment [2], the target named is untagged B. cereus C-SpoIISA (Bacillus cereus ATCC 14579) (UniProt Q81DD1). As to the kind of experiment: SEC; purified untagged C-SpoIISA on Superose 6 10/300 GL, 0.4 ml/min, absorbance at 280 nm. (In general: SEC sorts molecules by how far they enter the pores of the column.)

Regarding “His6-tagged B. cereus C-SpoIISA (pETDuetCIISA Bc; pETDuetCIISAB Bc) (from UniProt Q81DD1 1-245) (domain or fragment)”, in experiment [1], the stoichiometry N (as a rule, a count of units in the complex or per binding partner) is 2 and 3.

For “untagged B. cereus C-SpoIISA (from UniProt Q81DD1 1-245) (domain or fragment)”, in experiment [2], the stoichiometry N is 2 and 3.
